Laboratory results published in the supplement of paper PMC9112550, “Optimization of the antimicrobial peptide Bac7 by deep mutational scanning” (BMC Biology, 2022).

Test system: Escherichia coli TOP10
Assay: shrunken log2 fold change of peptide-encoding DNA abundance (4.5 h post-induction vs induction); higher = less antimicrobial activity (less host growth inhibition)
Settings: time post-induction: 4.5 h; library: site-saturation at positions 5, 18, 19, 20
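Note: peptides expressed intracellularly from a pBAD plasmid library in pooled LB shake-flask culture, induced with 0.3% L-arabinose, DNA abundance read by NGS, three biological replicates, DESeq2 with apeglm shrinkage.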

Sequence	shrunken log2 fold change
RRIRVRPPRLPRPRPRPHWYPRP	-0.463
RRIRVRPPRLPRPRPRPDIDPRP	-0.205
RRIRLRPPRLPRPRPRPTMFPRP	-0.0861
RRIRYRPPRLPRPRPRPWQDPRP	-0.122
RRIRHRPPRLPRPRPRPEDNPRP	-0.0032
RRIRMRPPRLPRPRPRPGNFPRP	0.121
RRIRHRPPRLPRPRPRPCYVPRP	-1.53
RRIRMRPPRLPRPRPRPAVDPRP	0.154
RRIRVRPPRLPRPRPRPEWWPRP	0.191
RRIRGRPPRLPRPRPRPPSMPRP	0.593
RRIRIRPPRLPRPRPRPWGVPRP	-0.888
RRIRIRPPRLPRPRPRPSQCPRP	-0.0584
RRIRSRPPRLPRPRPRPNIPPRP	-0.492
RRIRSRPPRLPRPRPRPVRYPRP	0.0544
RRIRTRPPRLPRPRPRPHFVPRP	-0.239
RRIRERPPRLPRPRPRPLFEPRP	-0.0266
RRIRLRPPRLPRPRPRPCKKPRP	-0.149
RRIRYRPPRLPRPRPRPFPGPRP	-0.253
RRIRFRPPRLPRPRPRPHNVPRP	0.0631
RRIRSRPPRLPRPRPRPICRPRP	-0.0192
RRIRWRPPRLPRPRPRPKCCPRP	0.0888
RRIRQRPPRLPRPRPRPRYKPRP	-0.278
RRIRQRPPRLPRPRPRPAEIPRP	-0.219
RRIRLRPPRLPRPRPRPDWQPRP	-0.0564
RRIRERPPRLPRPRPRPMYEPRP	-0.00246

Sequence	shrunken log2 fold change
RRIRLRPPRLPRPRPRPSHCPRP	-0.117
RRIRDRPPRLPRPRPRPNYEPRP	-0.252
RRIRSRPPRLPRPRPRPYCQPRP	-0.164
RRIRARPPRLPRPRPRPFSSPRP	-0.159
RRIRSRPPRLPRPRPRPYRVPRP	-0.0218
RRIRLRPPRLPRPRPRPGAEPRP	0.505
RRIRMRPPRLPRPRPRPTFHPRP	-0.00995
RRIRMRPPRLPRPRPRPLMPPRP	0.13
RRIRIRPPRLPRPRPRPWYCPRP	-0.0341
RRIRQRPPRLPRPRPRPLVDPRP	0.187
RRIRHRPPRLPRPRPRPVMLPRP	-0.196
RRIRQRPPRLPRPRPRPSLLPRP	-0.216
RRIRIRPPRLPRPRPRPTNWPRP	-0.128
RRIRLRPPRLPRPRPRPHTGPRP	-0.158
RRIRVRPPRLPRPRPRPEMCPRP	-0.0885
RRIRKRPPRLPRPRPRPDVNPRP	0.139
RRIRHRPPRLPRPRPRPLYSPRP	-0.792
RRIRWRPPRLPRPRPRPMWMPRP	-0.195
RRIRQRPPRLPRPRPRPHFTPRP	-0.217
RRIRKRPPRLPRPRPRPAEIPRP	-0.119
RRIRSRPPRLPRPRPRPFIRPRP	-0.412
RRIRPRPPRLPRPRPRPKRFPRP	0.297
RRIRCRPPRLPRPRPRPQMTPRP	0.218
RRIRNRPPRLPRPRPRPTLPPRP	0.149
RRIRKRPPRLPRPRPRPEAYPRP	0.0226

Sequence	shrunken log2 fold change
RRIRRRPPRLPRPRPRPGVDPRP	0.31
RRIRNRPPRLPRPRPRPQPIPRP	0.14
RRIRMRPPRLPRPRPRPFCVPRP	0.00978
RRIRYRPPRLPRPRPRPNQTPRP	-0.0672
RRIRFRPPRLPRPRPRPFTAPRP	-0.662
RRIRYRPPRLPRPRPRPQWGPRP	0.122
RRIRARPPRLPRPRPRPGAHPRP	0.669
RRIRQRPPRLPRPRPRPDDGPRP	-0.171
RRIRNRPPRLPRPRPRPMRSPRP	1.09
RRIRYRPPRLPRPRPRPVVSPRP	-0.595
RRIRIRPPRLPRPRPRPVIIPRP	-0.146
RRIRVRPPRLPRPRPRPREPPRP	0.947
RRIRCRPPRLPRPRPRPLGYPRP	0.0405
RRIRCRPPRLPRPRPRPHESPRP	-0.123
RRIRPRPPRLPRPRPRPLRYPRP	0.17
RRIRGRPPRLPRPRPRPGLLPRP	0.791
RRIRVRPPRLPRPRPRPEQTPRP	-0.0332
RRIRCRPPRLPRPRPRPPIRPRP	0.0846
RRIRCRPPRLPRPRPRPNDPPRP	0.0328
RRIRGRPPRLPRPRPRPKDMPRP	0.213
RRIRWRPPRLPRPRPRPRGPPRP	0.931
RRIRERPPRLPRPRPRPEWLPRP	-0.062
RRIRRRPPRLPRPRPRPFIGPRP	-0.25
RRIRCRPPRLPRPRPRPNKQPRP	-0.201
RRIRSRPPRLPRPRPRPNGSPRP	-0.21
